Test results reported in the supplement of paper PMC12042874.
± gives the uncertainty stated by the source.

Test: amyloid nucleation score (Sup35N fusion, yeast selection) (log enrichment); library NNK2; higher = more nucleation; inactive = no reads after selection
Method in brief: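 Yeast lacking psi expressed peptides of 20 random codons fused to Sup35N, received 100 μM copper sulfate for 24 hours, and were then grown for 7 days at 30°C on medium lacking adenine and uracil. Illumina sequencing of input and output plasmid inserts provided the reads. Nucleation scores are DiMSum log enrichments of output over input, centred on the mode of non-aggregating sequences. Any sequence with under 100 input reads was excluded.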
Substance LWRIVSWVECIRCTNP has an amyloid nucleation score of 0.182 ± 0.79. For LWSFKYFSVCYNLWTIMKGG, the amyloid nucleation score was “inactive”. In the case of LWSGFLSFVSNVPTFLYLS, the amyloid nucleation score is reported as -2.01 ± 0.41. For LWTKFDSPSRVCHKSQLSKA, the amyloid nucleation score was 0.192 ± 0.26. LYDFRDSYAYVCLTGYKYLG gave an amyloid nucleation score of 1.02 ± 0.57. LYDVRGEMSNVGWFM gave an amyloid nucleation score of -0.052 ± 0.54. LYEMVVM showed an amyloid nucleation score of 0.05 ± 1. In the case of LYERFIVENDCFQNHMKHEA, the amyloid nucleation score is reported as “inactive”. LYEVLESVMIGI showed an amyloid nucleation score of -0.097 ± 0.6. LYGHGSILVRTNGGISFRRN gave an amyloid nucleation score of -1.02 ± 1.1. With LYGRYANERWRLNSLDEKVT the amyloid nucleation score was 0.881 ± 0.45. With LYIDLHDEALRTTKMDMLNG the amyloid nucleation score was “inactive”. Work on LYKSSIA yielded an amyloid nucleation score of -2.08 ± 0.49. For LYLGMDYWWDV, the amyloid nucleation score was -0.164 ± 0.33. Substance LYMCSSVLWVGLSLV has an amyloid nucleation score of 0.851 ± 0.56. In the case of LYNRLACL, the amyloid nucleation score is reported as 1.86 ± 0.084. Work on LYQVRGTY yielded an amyloid nucleation score of 0.353 ± 0.22. LYRLGFEAHRVYKQLKIIGG showed an amyloid nucleation score of 0.764 ± 0.4. For LYRNSMRRDR, the amyloid nucleation score was -0.669 ± 0.35. Work on LYRQTLLSHL yielded an amyloid nucleation score of -0.231 ± 0.24. With LYRSSLRFMPTIICETVWMY the amyloid nucleation score was “inactive”. For LYVLTNSGPHCLCVGMMHYN, the amyloid nucleation score was “inactive”. For LYWAFTTISLYLTSTFVSLM, the amyloid nucleation score was -1.66 ± 1.1. LYWYKY showed an amyloid nucleation score of -0.414 ± 0.79. In the case of MALHVQWRVTGSI, the amyloid nucleation score is reported as 5.14 ± 0.037. In the case of MALVSTSSFFDV, the amyloid nucleation score is reported as “inactive”. With MAVYTRVVTLCRGKPFS the amyloid nucleation score was 1.06 ± 0.35. For MCELGFHNSPFSGTFLLLMF, the amyloid nucleation score was 1.64 ± 0.12. For MCNFRSWGALLNKRAHGVGS, the amyloid nucleation score was 0.307 ± 0.65. MCQDGCHGFLVTADQPQSGA showed an amyloid nucleation score of -0.148 ± 0.42. Substance MCSPSQEVITYHSDFWNGQK has an amyloid nucleation score of 1.18 ± 0.68. For MCTELYEDGNKPTTRSDRSA, the amyloid nucleation score was 3.21 ± 0.1. Work on MCTGRFFSITSYGCKESSYL yielded an amyloid nucleation score of 1.49 ± 0.26. Substance MDFVNTIATCNKKREVRFVI has an amyloid nucleation score of -1.1 ± 0.36. MDLRVTVILFSDYEAYFDVT showed an amyloid nucleation score of 1.33 ± 0.18. For MDQNG, the amyloid nucleation score was -0.427 ± 0.79. Work on MDYTFSLQTMCGVWYCYWGR yielded an amyloid nucleation score of 1.31 ± 0.31. For MEFDVLSIFQRGSRAGAK, the amyloid nucleation score was -1.3 ± 0.54. Work on MELMNMV yielded an amyloid nucleation score of -0.127 ± 0.65. For MELTSN, the amyloid nucleation score was “inactive”. Work on MFCSEMLVYGLMMVLSF yielded an amyloid nucleation score of -0.05 ± 0.3. In the case of MFGHHKS, the amyloid nucleation score is reported as -0.5 ± 0.63. In the case of MFLSNDIAFVKNVLNRIRYL, the amyloid nucleation score is reported as -0.642 ± 0.78. MFLYTVTNARFYEWW gave an amyloid nucleation score of 0.102 ± 0.61. In the case of MFNFWWSFYALFKLSWRPGF, the amyloid nucleation score is reported as -0.996 ± 0.49. MFNLSLNEFKPGLNRDCVQ gave an amyloid nucleation score of -0.258 ± 0.56. MFSPQLSALMILVSYMHDGW gave an amyloid nucleation score of 2.04 ± 0.087. For MFYASFGVKL, the amyloid nucleation score was 0.655 ± 0.65. In the case of MGCICWVDCKPYDFGMTVVM, the amyloid nucleation score is reported as -0.726 ± 0.49. MGFQVYLGRGLNDFKAE gave an amyloid nucleation score of 2.66 ± 0.11. MGLMNCSYSVKKQAAVIRTD showed an amyloid nucleation score of 0.06 ± 0.17. Work on MGLRCWKIIMWNYSRKLHQC yielded an amyloid nucleation score of 0.031 ± 0.45. MGLSWLSLLLKCRCQWACKL showed an amyloid nucleation score of 0.306 ± 0.65. For MGLYLWGFRTTSICGVLMDY, the amyloid nucleation score was -1.66 ± 0.76. In the case of MGNSYIEVRSLYR, the amyloid nucleation score is reported as -0.578 ± 0.64. Substance MGSGSIFT has an amyloid nucleation score of 0.287 ± 0.45. With MGVKPTPCRVRPPRRPGASA the amyloid nucleation score was 1.68 ± 0.27. With MGVRY the amyloid nucleation score was 1.42 ± 0.38. With MHDYFLVQ the amyloid nucleation score was -0.487 ± 0.42. MHGFNDAYFLCDVSAQGLV gave an amyloid nucleation score of -0.128 ± 0.28. MIDRE showed an amyloid nucleation score of 0.83 ± 0.2. MIGSGVW gave an amyloid nucleation score of -1.07 ± 0.78. In the case of MIIVTAY, the amyloid nucleation score is reported as -0.073 ± 0.49. Work on MINFDYYRYHCWCSNQHYTR yielded an amyloid nucleation score of 1.19 ± 0.47. With MISYYLMSIYS the amyloid nucleation score was 4.58 ± 0.065. Work on MIYERASSVRISFGMLRFRS yielded an amyloid nucleation score of -1.48 ± 1.1. In the case of MKFVNINGAICSVRHPSVRT, the amyloid nucleation score is reported as 0.089 ± 0.79. In the case of MKGALWYSDKAT, the amyloid nucleation score is reported as 0.102 ± 1.1. For MKSNSLSGRCSQFHLES, the amyloid nucleation score was -0.184 ± 1.1. Substance MKVGLLD has an amyloid nucleation score of -0.49 ± 0.76. Substance MLHSRLAREMHTLVILFFNK has an amyloid nucleation score of 0.05 ± 0.49. Work on MLIPRVFISHVDICGYISCS yielded an amyloid nucleation score of 4.626 ± 0.036. In the case of MLNLVATVLWDWSVDCSWQV, the amyloid nucleation score is reported as 1.5 ± 0.11. With MLRCQFTSTGFGNRLATFSD the amyloid nucleation score was 3.02 ± 0.15. For MLSQASKT, the amyloid nucleation score was -0.84 ± 1.1. MLVLFADRRSMRDLDNTGFV gave an amyloid nucleation score of 0.029 ± 0.79. MMAIFWGFSVQRRRGSGIDL showed an amyloid nucleation score of 2.74 ± 0.18. MMGVCF gave an amyloid nucleation score of -0.916 ± 1.1. With MMIAWFSRMCFF the amyloid nucleation score was 2.92 ± 0.1. Work on MMLNSINLKYLIWLCN yielded an amyloid nucleation score of 2.73 ± 0.06. MMLRLSCSSPQSLVRSSS gave an amyloid nucleation score of -0.181 ± 0.63. Substance MNELVIIGILMCCTDF has an amyloid nucleation score of 8.484 ± 0.027. With MNQTCIRVDRLELYRYM the amyloid nucleation score was “inactive”. MNRYSKIVSQFVLAVDSTYF showed an amyloid nucleation score of 0.433 ± 0.74. With MNVMNQSSFHMV the amyloid nucleation score was -0.108 ± 1.1. In the case of MPLLRVVMTLRHKSLFKAEM, the amyloid nucleation score is reported as -0.272 ± 0.44. For MPPRGKSWSVRTSLWKQIFM, the amyloid nucleation score was 3.24 ± 0.11. In the case of MRAYFYNKRVISYSLISFPV, the amyloid nucleation score is reported as -1.45 ± 0.78. With MRCWFTFVWCVIYY the amyloid nucleation score was “inactive”. MRGVTLYDYFDGIRIWRPLR gave an amyloid nucleation score of 3.76 ± 0.12. MRLFFLVLICAYVVESGFQC gave an amyloid nucleation score of 0.72 ± 0.25. MRSFCFSVQNIQVTYHVGLA gave an amyloid nucleation score of 3.94 ± 0.1. Substance MRSSFGK has an amyloid nucleation score of -0.086 ± 0.5. Substance MRTNRLKSVV has an amyloid nucleation score of 0.275 ± 0.33. MRVRLGSATR showed an amyloid nucleation score of 0.47 ± 0.34. With MSARECWTIRFPYRVIVWEV the amyloid nucleation score was 0.214 ± 0.74. MSGAFVYAWCLRTGKCTQAG showed an amyloid nucleation score of -0.082 ± 0.27. Substance MSGEDSGCLWDCNVYSRLDV has an amyloid nucleation score of -0.486 ± 0.74. With MSISSALNKSSHTNSSMWNK the amyloid nucleation score was -0.277 ± 0.31. Substance MSIWCNSIDRTFIDNLRPVF has an amyloid nucleation score of -1.43 ± 0.62. MSKYFWVSRGSSIITTW gave an amyloid nucleation score of -0.539 ± 0.37. Substance MSLHPMRLHQWRPESIVLTE has an amyloid nucleation score of 0.365 ± 0.66. MSMFVGTYNSFFRQSLFSAF showed an amyloid nucleation score of -1.7 ± 0.78. In the case of MSNMVSSMGSRMFLIICVVS, the amyloid nucleation score is reported as 0.68 ± 0.4. With MTFDNDVCVSI the amyloid nucleation score was “inactive”. With MTGNIEIIRMCRCTTYGMTY the amyloid nucleation score was 1.09 ± 0.37. Work on MTKRG yielded an amyloid nucleation score of 0.187 ± 0.41. MTMMVGRIISTNRVYS showed an amyloid nucleation score of 1.29 ± 0.53. With MTNSLCSTCIMFYSMCMNST the amyloid nucleation score was 7.79 ± 0.08. With MTSYAWMNTSSM the amyloid nucleation score was “inactive”. Work on MTTFDIRIMA yielded an amyloid nucleation score of 0.195 ± 0.24. With MVEHLCNNHSRFLYSAWGIE the amyloid nucleation score was -0.641 ± 0.56. In the case of MVFVFKDSLIFSRSLYIMEC, the amyloid nucleation score is reported as -1.34 ± 0.41. MVGCFWVMFVGREIYSRVRS showed an amyloid nucleation score of -0.915 ± 0.26. Work on MVILVLFASTVLQYTVPFWV yielded an amyloid nucleation score of 0.247 ± 0.5. In the case of MVIWFPLEIMIRIRSPL, the amyloid nucleation score is reported as -0.766 ± 0.48. Work on MVLVS yielded an amyloid nucleation score of 0.548 ± 0.34. MVRIGELSPRCNSFV gave an amyloid nucleation score of 0.075 ± 0.53. Substance MVSCRN has an amyloid nucleation score of 0.237 ± 1. In the case of MVSMFNGYAVLHCPLCIITR, the amyloid nucleation score is reported as 7.11 ± 0.047. Work on MVTTSSVSNADLNVDMWLEP yielded an amyloid nucleation score of 1.01 ± 0.2. In the case of MVTYVMLSIPGFSSKYFFEG, the amyloid nucleation score is reported as -1.42 ± 1.1. Work on MWDNFPCAVVLFKLC yielded an amyloid nucleation score of 0.696 ± 0.23. Work on MWKQWSSRTPRSVVYRGLMV yielded an amyloid nucleation score of 0.755 ± 0.21. In the case of MWRGQCV, the amyloid nucleation score is reported as 1.06 ± 0.24. In the case of MWRTLGYHTNMVSA, the amyloid nucleation score is reported as “inactive”. Work on MWTLLVKSTKGAHGQYSVMH yielded an amyloid nucleation score of 0.397 ± 0.22. For MWWFYGSILHRGDRT, the amyloid nucleation score was 1.58 ± 0.23. With MYCLFFFMWGCYYYTIFRSV the amyloid nucleation score was “inactive”.
